Reference: paper PMC7708447, “Ultrasensitive antibody-aptamer plasmonic biosensor for malaria biomarker detection in whole blood”

Assays:
[1] = molecular target: Plasmodium falciparum lactate dehydrogenase (PfLDH) (Plasmodium falciparum, UniProt Q76NM3 1-316); assay: antibody-aptamer sandwich plasmon-enhanced fluorescence; PfLDH captured by anti-PLDH on AuNP array; spiked human blood; 0.1 uM aptamer; sandwich LOD 18 fM (not a Kd); association time constant 45 +/- 15 min; Aptamer step: PBS (10 mM NaCl, 10 mM NaH2PO4, 10 mM Na2HPO4, 1 mM MgCl2, pH 7.1), 0.1 uM Cy5-aptamer, 2 h in the dark; temperature not stated; analyte spiked in human blood; settings: protein: recombinant; chain copies: 4; label: 5'-Cy5
[2] = molecular target: Plasmodium vivax lactate dehydrogenase (PvLDH) (Plasmodium vivax, UniProt Q4PRK9 1-316); assay: antibody-aptamer sandwich plasmon-enhanced fluorescence; settings: protein: recombinant; chain copies: 4

## CTGGGCGGTAGAACCATAGTGACCCAGCCGTCTAC (ssDNA) [malaria 2008s aptamer]
[1]
  binding result: binds
[2]
  binding result: no binding
